The values that follow come from PMC9233703.

The target in experiment [1] is bovine brain tubulin polymerized into the microtubule lattice (bovine) (UniProt Q6B856). In words: motor-pulling assay (TIRF microscopy); taxol-stabilized microtubules, 10 μM taxol, held by digoxigenin-labeled tubulin; 3.8 kb biotinylated DNA linker; 6 nM biotinylated kinesin-1; 1 mM ATP, 28 °C.
The target is the same in experiment [2]. The experiment is described as follows: motor-pulling assay (TIRF microscopy); GDP-microtubules with GMPCPP-tubulin caps held on the surface by anti-digoxigenin antibody; tubulin with 3.8 kb biotinylated DNA linker pulled along the microtubule axis by biotinylated kinesin-1 (0.5-9 nM) joined via neutravidin; 1 mM ATP, SYTOX Green, 28 °C.
For experiment [3] the target is unchanged. The experiment is described as follows: optical tweezer force spectroscopy; taxol-stabilized microtubules copolymerized with biotinylated tubulin, affixed to neutravidin-coated coverslip; single tubulin pulled by its α-tubulin CTT through an 8.2 kb DNA linker and an anti-digoxigenin bead, perpendicular to the microtubule axis; constant pulling velocity 0.32 μm/s; BRB80, 10 μM taxol.

Regarding “bovine brain tubulin labeled with an oligo-DNA handle on the α-tubulin C-terminal tail (SSL method), hybridized to a long DNA linker (from UniProt Q6B856 1-445) (complex)”, in experiment [1], the median rupture time under pulling by kinesin-1 (6 nM) was determined as 18 s. In addition, in experiment [2], the decay time of the rupture-time histogram (4.5-9 nM biotinylated kinesin) was found to be 8.8 s, the median rupture time under pulling by kinesin-1 (plateau at high kinesin concentration) turned out to be 8 s and the percentage of DNA remained on the microtubules after 5 min with 6 nM biotinylated kinesin-1 was determined as 59%. In experiment [3], the force typically required to remove tubulin from the lattice was 30 pN; the lifetime in the lattice at zero force estimated from the rupture force histogram (Dudko method, single-step extraction) was 40 s; the rupture force amounted to 33.8 pN.
